Where no end group is shown, it is not given here. [ ]: non-standard residue; d: D form. Arg(Me2a) = CN(C)C(=N)NCCC[C@H](N)C(=O)O; Arg(Me) = CNC(=N)NCCC[C@H](N)C(=O)O
How the values were obtained:
[1] = biological target: TRIM66-WT_(965-1160) (PHD-Bromodomain) (human) (UniProt O15016); assay: ITC; MicroCal PEAQ-ITC, 25 °C, 20 mM Tris, 100 mM NaCl, pH 7.5; 0.7-4 mM peptide injected into the cell with 0.12 mM TRIM24-PHD-Bromo, 0.05 mM TRIM33 PHD-Bromo, or 0.05 or 0.11-[…] TRIM66-PHD-Bromo (or its mutants); single measurement, errors from the fitting curve
[2] = biological target: TRIM66-WT_(965-1160) (human) (UniProt O15016); assay: ITC; 0.7–4 mM peptide injected into a cell with 0.05 or 0.11–[…] TRIM66-PHD-Bromo (or its mutants), 0.12 mM TRIM24-PHD-Bromo or 0.05 mM TRIM33 PHD-Bromo; 25 °C; 20 mM Tris, 100 mM NaCl, pH 7.5; MicroCal PEAQ-ITC; single measurement
TRIM66-WT965-1160 = biological target: T1, TRIM66-WT965-1160 (Homo sapiens, UniProt O15016); assay: ITC, PHD-Bromodomain wild type; type: binding; details: for Kd / KD: MicroCal PEAQ-ITC, 20 mM Tris, 100 mM NaCl, error from curve fit, Weak binding = ITC curves cannot be fitted reliably, N.D. = no detectable binding
T1 construct: ITC titration: titrating TRIM66-WT965-1160 with various histone H3 peptides; GST (N, cleaved yes); made in house; host or cells: Escherichia coli BL21 (DE3)
T1 sequence (O15016 1100-1295): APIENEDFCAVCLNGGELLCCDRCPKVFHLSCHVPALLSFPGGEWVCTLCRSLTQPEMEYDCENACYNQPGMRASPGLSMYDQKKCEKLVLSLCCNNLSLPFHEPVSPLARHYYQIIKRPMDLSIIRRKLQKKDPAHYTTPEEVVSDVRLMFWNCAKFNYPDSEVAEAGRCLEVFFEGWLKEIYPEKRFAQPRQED
Description: We next performed the glutathione S-transferase (GST) pulldown assays of the TRIM66-WT965-1160 against the calf thymus histones to verify the histone-binding ability of TRIM66 PHD-Bromodomain. […] The PHD of TRIM66 shared a low conservation with those of ING4, PHF2, and BPTF, and lacked the conserved aromatic residues, which were necessary for binding H3K4me2/3[40]–[42] (Supplementary Fig. 2b). Nevertheless, TRIM66 was highly conserved in sequence and structure with the PHDs of TRIM24 and TRIM33 (Fig. 1c and Supplementary Fig. 2b), which were reported to bind H3K4me0[5],[6]; thus, we speculated that the PHD of TRIM66 could bind H3K4me0. To verify this hypothesis, we performed isothermal titration calorimetry (ITC)-based binding assays. […] Based on previous researches reporting the acetyl-lysine binding partners of Bromodomain[3]–[12], we chose a series of related peptides derived from H3 and H4, to test their interactions with TRIM66-WT965-1160 by ITC experiments. […] We further found the acetylated state of K56 was necessary for this binding (Supplementary Fig. 3b).
We next titrated the TRIM66-WT965-1160 with a series of R2-methylated H3 peptides through ITC assays. […] This finding was consistent with the structural observation that each NηH atom of the R2 formed a hydrogen bond with residues in protein (Fig. 2d).
The DNA fragments of human TRIM66_968-1160, TRIM24_824-1006, and TRIM33_882-1087 were amplified from a human bone marrow cDNA library using a PCR-based cloning strategy. The fragments of TRIM66-WT968-1160 were inserted into a pGEX-4T-1 plasmid (GE Healthcare). The fragments of TRIM24_824-1006 and TRIM33_882-1087 were ligated into a pET-SUMO-28a (+) plasmid (Novagen). The DNA fragments of TRIM66-MUT968-1160 and TRIM66-WT965-1160 with codon optimization were synthesized by General Biosystems (sequence was shown in Supplementary Methods) and inserted into a pGEXT-4T-1 plasmid (GE Healthcare). Mutants of TRIM66 PHD-Bromo were generated through PCR using the Mutant Best kit (Takara). The mutation of point mutant based on the codon-optimized DNA sequence of TRIM66-WT965-1160. All constructs were expressed in Escherichia coli BL21 (DE3). The construct of ASF1a1-156 inserted into a pRSFDuet plasmid (courtesy of Ruiming Xu Lab, Institute of Biophysics, Chinese Academy of Sciences) was expressed in E. coli BL21 (DE3) RIL. The construct of full-length H4 inserted into a pET3a plasmid was expressed in E. coli BL21 (DE3). The expression of full-length histone H3K56ac was performed in BL21 (DE3) cells transformed with pBK-AxcKRS3 and pET22b encoding H3 with amber codons at the K56 site[12]. The DNA fragment of full-length TRIM66 was synthesized by General Biosystems and ligated into fugw vector (Addgene). See the information of protein sequence in Supplementary Table 1.
The calorimetric experiments were performed at 25 °C using a MicroCal PEAQ-ITC. The proteins were dialyzed using a buffer containing 20 mM Tris and 100 mM NaCl at pH 7.5. Lyophilized peptides were dissolved in the same buffer and adjusted to pH 7.5 prior to use. Peptide concentrations were estimated from the quantitative NMR experiments[73],[74]. ITC measurements were performed via injection of 0.7–4 mM peptide into a cell containing 0.12 mM TRIM24-PHD-Bromo, 0.05 mM TRIM33 PHD-Bromo, and 0.05 or 0.11–0.15 mM TRIM66-PHD-Bromo (or its mutants). The ITC data were subsequently analyzed using the MicroCal PEAQ-ITC analysis software.

TRIM33_(882-1087) = biological target: T2, TRIM33_(882-1087) (human, UniProt Q9UPN9 882-1087); assay: ITC; 0.7–4 mM peptide injected into a cell with 0.05 or 0.11–0.15 mM TRIM66-PHD-Bromo (or its mutants), 0.12 mM TRIM24-PHD-Bromo or 0.05 mM TRIM33 PHD-Bromo; 25 °C; 20 mM Tris, 100 mM NaCl, pH 7.5; MicroCal PEAQ-ITC; single measurement; details: both partners purified
T2 construct: also called TRIM33 PHD-Bromo; TRIM33 PHD-Bromodomain; source: E. coli BL21 (DE3), purified (Ni-chelating column, SUMO protease, second nickel column, Superdex 75)
T2 sequence (looked up): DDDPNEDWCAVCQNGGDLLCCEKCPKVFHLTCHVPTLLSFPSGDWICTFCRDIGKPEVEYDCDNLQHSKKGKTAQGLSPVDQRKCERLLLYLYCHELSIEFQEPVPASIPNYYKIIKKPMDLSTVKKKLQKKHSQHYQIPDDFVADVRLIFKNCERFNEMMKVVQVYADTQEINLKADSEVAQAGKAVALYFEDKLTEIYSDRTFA

TRIM24_(824-1006) = biological target: T3, TRIM24_(824-1006) (human, UniProt O15164 824-1006); assay: as above; details: both partners purified
T3 construct: TRIM24, human, PHD-Bromodomain, residues 824-1006, amplified from a human bone marrow cDNA library, in pET-SUMO-28a (+); also called TRIM24-PHD-Bromo; TRIM24 PHD-Bromodomain; source: E. coli BL21 (DE3), purified (Ni-chelating column, SUMO protease, second nickel column, Superdex 75)
T3 sequence (looked up): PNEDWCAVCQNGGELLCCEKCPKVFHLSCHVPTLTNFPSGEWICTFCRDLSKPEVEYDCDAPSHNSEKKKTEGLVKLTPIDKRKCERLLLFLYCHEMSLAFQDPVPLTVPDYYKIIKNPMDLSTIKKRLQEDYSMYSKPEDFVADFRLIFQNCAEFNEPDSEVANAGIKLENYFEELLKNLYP

[3] = biological target: T4, TRIM24_(824-1006) (PHD-Bromodomain) (human, UniProt O15164 824-1006); assay: ITC; MicroCal PEAQ-ITC, 25 °C, 20 mM Tris, 100 mM NaCl, pH 7.5; 0.7-4 mM peptide injected into the cell with 0.12 mM TRIM24-PHD-Bromo, 0.05 mM TRIM33 PHD-Bromo, or 0.05 or 0.11-0.15 mM TRIM66-PHD-Bromo (or its mutants); single measurement, errors from the fitting curve; details: both partners purified
T4 construct: TRIM24 PHD-Bromodomain, Homo sapiens, residues 824-1006 of UniProt O15164 (Isoform long); also called TRIM24-PHD-Bromo; source: E. coli BL21 (DE3), purified (Ni column, SUMO protease, second Ni column, Superdex 75)
T4 sequence (looked up): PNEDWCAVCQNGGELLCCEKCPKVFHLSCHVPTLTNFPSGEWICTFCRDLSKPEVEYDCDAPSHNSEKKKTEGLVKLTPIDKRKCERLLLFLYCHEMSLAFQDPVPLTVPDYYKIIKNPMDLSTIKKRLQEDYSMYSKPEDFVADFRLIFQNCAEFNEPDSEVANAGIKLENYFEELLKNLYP

[4] = biological target: T5, TRIM33_(882-1087) (PHD-Bromodomain) (human, UniProt Q9UPN9 882-1087); assay: as above; details: both partners purified
T5 construct: also called TRIM33 PHD-Bromo; source: E. coli BL21 (DE3), purified (Ni column, SUMO protease, second Ni column, Superdex 75)
T5 sequence (looked up): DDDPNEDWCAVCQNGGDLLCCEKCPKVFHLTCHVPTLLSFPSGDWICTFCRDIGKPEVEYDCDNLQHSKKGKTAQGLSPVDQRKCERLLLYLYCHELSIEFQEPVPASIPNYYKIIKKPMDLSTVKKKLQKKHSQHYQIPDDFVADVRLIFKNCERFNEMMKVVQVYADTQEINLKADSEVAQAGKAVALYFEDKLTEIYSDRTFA

[5] = ITC, 25 °C, pH 7.5, single measurement

H3_(1-12)R2me1 peptide (from UniProt P68431 2-13)
stoichiometry N [1]: 0.91 | Kd [2]: 72.4 µM

CNC(=N)NCCC[C@H](NC(=O)[C@H](C)N)C(=O)N[C@H](C(=O)N[C@@H](CCCCN)C(=O)N[C@@H](CCC(N)=O)C(=O)N[C@H](C(=O)N[C@@H](C)C(=O)N[C@@H](CCCNC(=N)N)C(=O)N[C@@H](CCCCN)C(=O)N[C@@H](CO)C(=O)N[C@H](C(=O)NCC(=O)O)[C@@H](C)O)[C@@H](C)O)[C@@H](C)O [H3R2me1]
Kd (TRIM66-WT965-1160; [5]): 72.4 ± 3.27 µM

ARTKQTARKSTGGKALREIRRYQK(Ac)S [H3(1-15)-(48-57)K56ac]
binding (in words) (TRIM66-WT965-1160; ITC, 25 °C, pH 7.5): higher affinity than that for the individual peptides | -T△S (TRIM66-WT965-1160; [5]): 6.91 kcal per mol | N (stoichiometry) (TRIM66-WT965-1160; [5]): 1.17±0.01 | △H (TRIM66-WT965-1160; [5]): -15.5±0.15 kcal per mol | fold higher affinity than for the H3_1-12 peptide (TRIM66-WT965-1160; ratio of KD): 30 fold | fold higher affinity than for the H3_48-57K56ac peptide (TRIM66-WT965-1160; ratio of KD): 210 fold

H3_(1-12)R2me2a peptide (from UniProt P68431 2-13)
stoichiometry N [1]: 0.98 | Kd [2]: 110 µM

H3K4me2: dimethylated H3K4 peptide
KD (TRIM66-WT965-1160; [5]): Weak binding

H3_((1-15)-(48-57))K56ac peptide (from UniProt P68431 2-16; P68431 49-58)
stoichiometry N [1]: 1.17 | Kd [2]: 0.52 µM

H3_(1-12)K4me1 peptide (from UniProt P68431 2-13)
stoichiometry N [1]: 1.1 | Kd [2]: 42.8 µM

H3K4me3: trimethylated H3K4 peptide
KD (TRIM66-WT965-1160; [5]): Weak binding

CNCCCC[C@H](NC(=O)[C@@H](NC(=O)[C@H](CCCNC(=N)N)NC(=O)[C@H](C)N)[C@@H](C)O)C(=O)N[C@@H](CCC(N)=O)C(=O)N[C@H](C(=O)N[C@@H](C)C(=O)N[C@@H](CCCNC(=N)N)C(=O)N[C@@H](CCCCN)C(=O)N[C@@H](CO)C(=O)N[C@H](C(=O)NCC(=O)O)[C@@H](C)O)[C@@H](C)O [H3K4me1]
Kd (TRIM66-WT965-1160; [5]): 42.8 ± 2.45 µM

C[C@H](N)C(=O)N[C@@H](CCCNC(=N)N(C)C)C(=O)N[C@H](C(=O)N[C@@H](CCCCN)C(=O)N[C@@H](CCC(N)=O)C(=O)N[C@H](C(=O)N[C@@H](C)C(=O)N[C@@H](CCCNC(=N)N)C(=O)N[C@@H](CCCCN)C(=O)N[C@@H](CO)C(=O)N[C@H](C(=O)NCC(=O)O)[C@@H](C)O)[C@@H](C)O)[C@@H](C)O [H3R2me2a]
Kd (TRIM66-WT965-1160; [5]): 110 ± 11.9 µM

B1: H3_(1-12)R2me1 peptide (peptide, UniProt P68431 2-13, looked up)
peptide: A[Arg(Me)]TKQTARKSTG
notes: histone H3, residues 1-12; also called H3R2me1; monomethylated H3R2; source: synthetic peptide (GL Biochem, Shanghai)
Kd (TRIM33_(882-1087)): 5.1 µM | Kd (TRIM24_(824-1006)): 72.7 µM

B2: H3_(1-12)R2me2a peptide (peptide, UniProt P68431 2-13, looked up)
peptide: A[Arg(Me2a)]TKQTARKSTG
notes: histone H3.1, Homo sapiens, residues 1-12; also called H3R2me2a; source: synthetic peptide (GL Biochem)
stoichiometry N [3]: 0.86 | stoichiometry N [4]: 1.06

B3: H3_(1-12)R2me2a peptide (peptide, UniProt P68431 2-13, looked up)
peptide: A[Arg(Me2a)]TKQTARKSTG
notes: histone H3, residues 1-12; also called H3R2me2a; asymmetrically dimethylated H3R2; source: synthetic peptide (GL Biochem, Shanghai)
Kd (TRIM33_(882-1087)): 6.23 µM | Kd (TRIM24_(824-1006)): 76.8 µM

B4: H3_(1-12)R2me1 peptide (peptide, UniProt P68431 2-13, looked up)
peptide: A[Arg(Me)]TKQTARKSTG
notes: histone H3.1, Homo sapiens, residues 1-12; also called H3R2me1; source: synthetic peptide (GL Biochem)
stoichiometry N [3]: 0.93 | stoichiometry N [4]: 0.8

From article PMC6753139, “TRIM66 reads unmodified H3R2K4 and H3K56ac to respond to DNA damage in embryonic stem cells” (Nature Communications, 2019)
